Measurements as given in publication PMC3507735, “Cloning, expression and characterization of an aryl-alcohol dehydrogenase from the white-rot fungus Phanerochaete chrysosporium strain BKM-F-1767” (BMC Microbiology, 2012).

Assays:
[1] = target: T1, Pc Aad1p (recombinant aryl-alcohol dehydrogenase, AAD1) (Phanerodontia chrysosporium, UniProt Q01752); experiment: spectrophotometric NADPH oxidation at […] nm, non-linear fit; conditions: read-out: KMμM; reduction; 0.3 mM NADPH, 50 mM MES pH 6.1, 30°C
T1 sequence (Q01752 1-385): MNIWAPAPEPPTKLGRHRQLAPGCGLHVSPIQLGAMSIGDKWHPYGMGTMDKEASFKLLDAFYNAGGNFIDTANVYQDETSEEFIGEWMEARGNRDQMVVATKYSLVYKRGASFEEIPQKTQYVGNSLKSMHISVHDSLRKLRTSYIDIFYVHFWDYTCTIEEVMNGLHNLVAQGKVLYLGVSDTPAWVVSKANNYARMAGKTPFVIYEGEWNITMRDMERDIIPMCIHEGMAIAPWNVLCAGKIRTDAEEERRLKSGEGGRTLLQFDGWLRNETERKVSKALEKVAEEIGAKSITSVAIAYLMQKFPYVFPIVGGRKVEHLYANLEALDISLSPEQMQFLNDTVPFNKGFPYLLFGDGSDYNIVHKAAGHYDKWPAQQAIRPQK

[2] = target: T1, Pc Aad1p (recombinant aryl-alcohol dehydrogenase, AAD1); experiment: spectrophotometric NADPH oxidation at […] nm, fit to uncompetitive substrate inhibition equation; assay type: biochemical; set-up: full-length ORF (1155 bp) in pGS-21a; N-terminal His6-GST and C-terminal His6 tags kept; E. coli BL21 Star(DE3); conditions: substrate inhibition constant (uncompetitive); 0.3 mM NADPH, 50 mM MES pH 6.1, 30°C
COc1ccc(C=O)cc1O = experiment: purified protein; conditions: reduction, 0.3 mM NADPH, 50 mM MES pH 6.1, 30°C
purified protein [3] = substrate: COc1ccc(C=O)cc1OC; experiment: purified protein; conditions: reduction, 0.3 mM NADPH, 50 mM MES pH 6.1, 30°C
purified protein [4] = substrate: O=Cc1ccc(CO)o1; experiment: purified protein; conditions: reduction, 0.3 mM NADPH, 50 mM MES pH 6.1, 30°C
purified protein [5] = substrate: COc1cc(C=O)cc(OC)c1; experiment: purified protein; conditions: reduction, 0.3 mM NADPH, 50 mM MES pH 6.1, 30°C
purified protein [6] = substrate: O=Cc1ccccc1; experiment: purified protein; conditions: reduction, 0.3 mM NADPH, 50 mM MES pH 6.1, 30°C
purified protein [7] = substrate: COc1cc(C=O)ccc1O; experiment: purified protein; conditions: reduction, 0.3 mM NADPH, 50 mM MES pH 6.1, 30°C
purified protein [8] = substrate: O=CCc1ccccc1; experiment: purified protein; conditions: reduction, 0.3 mM NADPH, 50 mM MES pH 6.1, 30°C
purified protein [9] = substrate: NC(=O)c1ccc[n+]([C@@H]2O[C@H](COP(=O)(O)OP(=O)(O)OC[C@H]3O[C@@H](n4cnc5c(N)ncnc54)[C@H](OP(=O)(O)O)[C@@H]3O)[C@@H](O)[C@H]2O)c1; experiment: purified protein; assay type: biochemical, Phanerodontia chrysosporium; conditions: 10 mM 3,4-dimethoxybenzyl alcohol, 100 mM Glycine-KOH pH 10.3, 30°C, varied: cofactor
purified protein [10] = substrate: NC(=O)C1=CN([C@@H]2O[C@H](COP(=O)(O)OP(=O)(O)OC[C@H]3O[C@@H](n4cnc5c(N)ncnc54)[C@H](OP(=O)(O)O)[C@@H]3O)[C@@H](O)[C@H]2O)C=CC1; experiment: purified protein; assay type: biochemical, Phanerodontia chrysosporium; conditions: 0.2 mM 3,4-dimethoxybenzaldehyde, 50 mM MES pH 6.1, 30°C, varied: cofactor
purified protein [11] = substrate: COc1cc(CO)ccc1O; experiment: purified protein; assay type: biochemical, Phanerodontia chrysosporium; conditions: oxidation, 0.3 mM NADP+, 100 mM Glycine-KOH pH 10.3, 30°C
purified protein [12] = substrate: NC(=O)C1=CN([C@@H]2O[C@H](COP(=O)(O)OP(=O)(O)OC[C@H]3O[C@@H](n4cnc5c(N)ncnc54)[C@H](O)[C@@H]3O)[C@@H](O)[C@H]2O)C=CC1; experiment: purified protein; assay type: biochemical, Phanerodontia chrysosporium; conditions: 0.2 mM 3,4-dimethoxybenzaldehyde, 50 mM MES pH 6.1, 30°C, varied: cofactor
purified protein [13] = substrate: COc1ccc(CO)cc1OC; experiment: purified protein; assay type: biochemical, Phanerodontia chrysosporium; conditions: oxidation, 0.3 mM NADP+, 100 mM Glycine-KOH pH 10.3, 30°C

COc1ccc(C=O)cc1 [4-Methoxybenzaldehyde]
Km [1]: 90 ± 10 µM

COc1cc(C=O)ccc1O [4-Hydroxy-3-methoxybenzaldehyde]
KiμM [2]: 5100 ± 2300 µM

O=Cc1ccccc1 [Benzaldehyde]
KiμM [2]: 81000 ± 44000 µM

O=C/C=C/c1ccccc1 [trans-Cinnamaldehyde]
Km [1]: 3400 ± 1300 µM | KiμM [2]: 3500 ± 1600 µM

Pc Aad1p (recombinant aryl-alcohol dehydrogenase, AAD1) (Phanerodontia chrysosporium)
Km (COc1ccc(C=O)cc1O): 1400 ± 900 µM | kcat (COc1ccc(C=O)cc1O): 3.83 ± 1.83 s⁻¹ | kcat/Km (COc1ccc(C=O)cc1O): 2670 M⁻¹ s⁻¹

COc1ccc(C=O)cc1OC [3,4-Dimethoxybenzaldehyde]
KiμM [2]: 3400 ± 1100 µM

COc1ccc(C=O)cc1O [3-Hydroxy-4-methoxybenzaldehyde]
KiμM [2]: 2300 ± 1800 µM

COc1cc(C=O)cc(OC)c1 [3,5-Dimethoxybenzaldehyde]
KiμM [2]: 2100 ± 600 µM

B1: Pc Aad1p (recombinant aryl-alcohol dehydrogenase, AAD1) (Phanerodontia chrysosporium) (protein)
chain: T1 sequence (Q01752 1-385)
notes: full-length ORF (1155 bp) in pGS-21a; N-terminal His6-GST and C-terminal His6 tags kept; E. coli BL21 Star(DE3)
Km (purified protein [3]): 12 ± 2 µM | kcat (purified protein [3]): 8.83 ± 0.417 s⁻¹ | kcat/Km (purified protein [3]): 733000 M⁻¹ s⁻¹ | Km (purified protein [4]): 270 ± 40 µM | kcat (purified protein [4]): 2.93 ± 0.1 s⁻¹ | kcat/Km (purified protein [4]): 10800 M⁻¹ s⁻¹ | Km (purified protein [5]): 22 ± 4 µM | kcat (purified protein [5]): 9.83 ± 0.5 s⁻¹ | kcat/Km (purified protein [5]): 450000 M⁻¹ s⁻¹ | Km (purified protein [6]): 1700 ± 600 µM | kcat (purified protein [6]): 7.17 ± 0.833 s⁻¹ | kcat/Km (purified protein [6]): 5000 M⁻¹ s⁻¹ | Km (purified protein [7]): 1400 ± 600 µM | kcat (purified protein [7]): 3.33 ± 0.833 s⁻¹ | kcat/Km (purified protein [7]): 2330 M⁻¹ s⁻¹ | Km (purified protein [8]): 530 ± 90 µM | kcat (purified protein [8]): 11.2 ± 0.417 s⁻¹ | kcat/Km (purified protein [8]): 21700 M⁻¹ s⁻¹ | Km (purified protein [9]): 38 ± 7 µM | kcat (purified protein [9]): 2.57 ± 0.12 s⁻¹ | kcat/Km (purified protein [9]): 68300 M⁻¹ s⁻¹ | Km (purified protein [10]): 39 ± 5 µM | kcat (purified protein [10]): 11.3 ± 0.5 s⁻¹ | kcat/Km (purified protein [10]): 283000 M⁻¹ s⁻¹ | Km (purified protein [11]): 25000 ± 7000 µM | kcat (purified protein [11]): 4.33 ± 1 s⁻¹ | kcat/Km (purified protein [11]): 167 M⁻¹ s⁻¹ | Km (purified protein [12]): 220 ± 130 µM | kcat (purified protein [12]): 2 ± 0.667 s⁻¹ | kcat/Km (purified protein [12]): 10000 M⁻¹ s⁻¹ | Km (purified protein [13]): 370 ± 50 µM | kcat (purified protein [13]): 2.55 ± 0.1 s⁻¹ | kcat/Km (purified protein [13]): 6830 M⁻¹ s⁻¹
